Laboratory results reported in US20030148447A1.

Assays:
[1] = molecular target: MPL-zalpha11 chimera (MPL extracellular and transmembrane domains fused to the zalpha11 intracellular signaling domain) (human); experiment: cell-based or functional assay
[2] = molecular target: factor present in the activated CD3+ selected human T-cell conditioned media; experiment: cell-based or functional assay

Row | proliferation of BaF3/MPL-zalpha11 cells (Alamar Blue), fold over background (fold over background) [1] | inhibition of conditioned-medium-driven BaF3/Zalpha11 cell growth; soluble receptor concentration giving complete inhibition [2] [µg/mL] | titration of soluble receptor; lowest concentration completely inhibiting BaF3/Zalpha11 growth [2] [µg/mL] | Substance
1 | 10 | – | – | thrombopoietin (TPO) (ligand)
2 | – | 10 | 1.5 | zalpha11-Fc4 soluble receptor (zalpha11 extracellular domain fused C-terminally to human IgG Fc, Fc4) (from UniProt Q9HBE5 20-237) (Fc fusion)
